Experimental data reported in PMC8908268 (The Journal of Biological Chemistry, 2022).
Where “and” joins values, the source holds several entries; their conditions need not be identical. Equal entries are not always repeated. Blank lines part the entries; values can stand above or below the binder they belong to.

Experiments:
[1] = molecular target: T1, Halo-tagged full-length Gads (Grb2-related adapter protein downstream of Shc), 1–322aa (UniProt O89100 1-322); assay: co-sedimentation
T1 sequence: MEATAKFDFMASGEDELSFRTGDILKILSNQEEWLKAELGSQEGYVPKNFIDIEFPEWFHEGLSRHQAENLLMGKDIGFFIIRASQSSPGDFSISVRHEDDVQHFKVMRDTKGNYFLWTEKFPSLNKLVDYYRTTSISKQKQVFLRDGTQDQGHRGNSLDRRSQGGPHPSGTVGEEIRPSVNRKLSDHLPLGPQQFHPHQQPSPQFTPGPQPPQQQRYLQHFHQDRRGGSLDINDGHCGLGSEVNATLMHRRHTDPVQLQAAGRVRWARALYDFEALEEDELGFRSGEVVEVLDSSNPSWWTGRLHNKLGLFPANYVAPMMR

[2] = molecular target: His-tagged, doubly phosphorylated LAT (48–233aa; pY132 and pY171) (UniProt O43561); assay: co-sedimentation

binding result [1]: binds
B1: SLP-76 tyrosine- and proline-rich domains (103–258aa with Y113F and Y173F mutations) (domain or fragment)
chain: GGWSSFEEDDFESPNDDQDGEDDGDYESPNEEEEAPVEDDADYEPPPSNDEEALQNSILPAKPFPNSNSMFIDRPPSGKTPQQPPVPPQRPMAALPPPPAGRNHSPLPPPQTNHEEPSRSRNHKTAKLPAPSIDRSTKPPLDRSLAPFDREPFTLG

% of protein binding to LUV [2]: 26.3% and 31.4% and 42.8%
B2: Halo-tagged full-length Gads (Grb2-related adapter protein downstream of Shc), 1–322aa (natural protein)
chain: T1 sequence
